The target in this test is T1, CMVpp65_(495-503)/HLA-A*02:01 single-chain trimer (SCT) protein (Homo sapiens HLA-A*02:01 (BC019236) and …, UniProt P06725;P61769;Q8WUX3, stabilised).
T1 construct: source: HEK293F, transfected, purified from culture supernatant (Ni-NTA)
Briefly: BLI; Abs (mouse IgG2a/κ) immobilised, soluble pMHC SCT as analyte; pH 7.4; Octet QKe; global fit, 1:1 Langmuir model. The note with it: both partners purified.

In general, Kd refers to the free concentration of one partner at which half of the binding sites on the other are occupied at equilibrium, for simple one-to-one binding. Read a low Kd as a tighter complex. Usually koff stands for a measure of how fast the partners let go of each other. A higher koff goes with fast dissociation. As a reminder, the kon is a measure of how fast the partners come together. Read a high kon as fast association.

B1: H9 TCR-like antibody in mouse IgG2a/κ format (antibody, V domains shown)
VH: EVQLVQSGAEVKKPGSSVKVSCKASGGTFSSYAISWVRQAPGQGLEWMGGIIPIFGTANYAQKFQGRVTITADESTSTAYMELSSLRSEDTAVYYCARGDLYYYDSSGYPRYYFDYWGQGTLVTVSS
VL: ETTLTQSPGTLSLSPGERATLSCRASQSVSSSYLAWYQQKPGQAPRLVIYGASSRATGIPDRFSGSGSGTDFTLTISRLEPEDFAVYYCQHYSTSPGFTFGQGTKLEIR
notes: also called parental H9; H9 Ab
With B1, the affinity, expressed as Kd, was 348 ± 33 nM; the off-rate constant (koff) amounted to 0.0022 s⁻¹; the on-rate (kon) was 6300 M⁻¹ s⁻¹.
